Key:
[1] = biological target: AAV receptor (AAVR) on HEK293 cells (Homo sapiens (Human)) (UniProt Q8IZA0); experiment: cell-based or functional assay
[2] = biological target: T1, AAV receptor (AAVR) fragment comprising the domains PKD1 and PKD2 (residues V305-V499) (Homo sapiens (Human), UniProt Q8IZA0 305-499); experiment: SPR; affinity against wild-type AAV2 VLP
T1 sequence: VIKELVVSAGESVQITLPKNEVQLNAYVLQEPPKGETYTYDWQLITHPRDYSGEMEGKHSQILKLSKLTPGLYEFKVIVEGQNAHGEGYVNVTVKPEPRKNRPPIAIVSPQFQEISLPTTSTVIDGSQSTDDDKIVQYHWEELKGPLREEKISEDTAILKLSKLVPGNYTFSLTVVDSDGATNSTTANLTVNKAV

[3] = biological target: T1, AAV receptor (AAVR) fragment comprising …; experiment: SPR, three replicates; captured AAV9 VP3 VLP, AAVR analyte
[4] = biological target: T1, AAV receptor (AAVR) fragment comprising …; experiment: SPR, single replicate; captured AAV9 VP3 VLP, AAVR analyte
[5] = biological target: T1, AAV receptor (AAVR) fragment comprising …; experiment: SPR; against wild-type VLP
[6] = biological target: T1, AAV receptor (AAVR) fragment comprising …; experiment: SPR; captured AAV9 VP3 VLP, AAVR analyte
[7] = biological target: T1, AAV receptor (AAVR) fragment comprising …; experiment: SPR, single replicate; affinity against wild-type AAV9 VLP
[8] = biological target: T1, AAV receptor (AAVR) fragment comprising …; experiment: SPR, three replicates; affinity against wild-type AAV9 VLP

Sequence of AAV receptor (AAVR) on HEK293 cells (Homo sapiens (Human)) (Q8IZA0 whole entry, the tested form may be a part): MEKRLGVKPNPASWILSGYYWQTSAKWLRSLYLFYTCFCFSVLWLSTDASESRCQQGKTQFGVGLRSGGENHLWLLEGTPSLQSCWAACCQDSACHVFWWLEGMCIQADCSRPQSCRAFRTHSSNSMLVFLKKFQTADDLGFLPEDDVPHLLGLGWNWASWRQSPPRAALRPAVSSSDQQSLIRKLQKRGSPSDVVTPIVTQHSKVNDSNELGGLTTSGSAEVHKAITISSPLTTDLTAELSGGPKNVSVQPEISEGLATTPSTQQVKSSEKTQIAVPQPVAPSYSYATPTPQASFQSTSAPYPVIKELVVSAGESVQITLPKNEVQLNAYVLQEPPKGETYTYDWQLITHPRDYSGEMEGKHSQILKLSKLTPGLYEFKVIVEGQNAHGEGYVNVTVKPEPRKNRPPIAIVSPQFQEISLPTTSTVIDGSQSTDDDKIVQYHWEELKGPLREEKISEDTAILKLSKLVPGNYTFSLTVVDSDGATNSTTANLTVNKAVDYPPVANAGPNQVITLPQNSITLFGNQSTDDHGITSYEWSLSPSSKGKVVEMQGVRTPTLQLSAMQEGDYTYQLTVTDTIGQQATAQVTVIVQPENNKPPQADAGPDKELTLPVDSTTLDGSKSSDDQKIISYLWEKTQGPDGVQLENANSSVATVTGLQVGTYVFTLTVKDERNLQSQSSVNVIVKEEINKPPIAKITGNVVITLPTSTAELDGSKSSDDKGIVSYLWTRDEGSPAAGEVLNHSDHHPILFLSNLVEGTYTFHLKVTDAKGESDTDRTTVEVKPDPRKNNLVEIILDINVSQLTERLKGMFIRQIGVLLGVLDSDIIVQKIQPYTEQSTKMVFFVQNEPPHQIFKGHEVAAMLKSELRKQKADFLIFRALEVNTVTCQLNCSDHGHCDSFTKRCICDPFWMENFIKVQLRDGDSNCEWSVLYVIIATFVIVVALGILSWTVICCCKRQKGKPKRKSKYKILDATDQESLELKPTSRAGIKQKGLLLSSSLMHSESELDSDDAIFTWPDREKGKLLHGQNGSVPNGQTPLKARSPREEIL

AAV9 comprising a Q387K amino acid substitution mutation (full AAV with VP1, VP2 and VP3)
Expression of a transgene (GFP) in transduced HEK293 cells [1]: 3 fold

B1: AAV2 VP3 VLP T592D/A593E (other)
chain: MATGSGAPMADNNEGADGVGNSSGNWHCDSTWMGDRVITTSTRTWALPTYNNHLYKQISSQSGASNDNHYFGYSTPWGYFDFNRFHCHFSPRDWQRLINNNWGFRPKRLNFKLFNIQVKEVTQNDGTTTIANNLTSTVQVFTDSEYQLPYVLGSAHQGCLPPFPADVFMVPQYGYLTLNNGSQAVGRSSFYCLEYFPSQMLRTGNNFTFSYTFEDVPFHSSYAHSQSLDRLMNPLIDQYLYYLSRTNTPSGTTTQSRLQFSQAGASDIRDQSRNWLPGPCYRQQRVSKTSADNNNSEYSWTGATKYHLNGRDSLVNPGPAMASHKDDEEKFFPQSGVLIFGKQGSEKTNVDIEKVMITDEEEIRTTNPVATEQYGSVSTNLQRGNRQAADEDVNTQGVLPGMVWQDRDVYLQGPIWAKIPHTDGHFHPSPLMGGFGLKHPPPQILIKNTPVPANPSTTFSAAKFASFITQYSTGQVSVEIEWELQKENSKRWNPEIQYTSNYNKSVNVDFTVDTNGVYSEPRPIGTRYLTRNL
notes: VP3-only VLP
Fold change vs WT [2]: ~6 fold

B2: AAV9 VP3 VLP A273N/Q387K/E500R (other)
VP3: MASGGGAPVADNNEGADGVGSSSGNWHCDSQWLGDRVITTSTRTWALPTYNNHLYKQISNSTSGGSSNDNNYFGYSTPWGYFDFNRFHCHFSPRDWQRLINNNWGFRPKRLNFKLFNIQVKEVTDNNGVKTIANNLTSTVQVFTDSDYQLPYVLGSAHEGCLPPFPADVFMIPQYGYLTLNDGSKAVGRSSFYCLEYFPSQMLRTGNNFQFSYEFENVPFHSSYAHSQSLDRLMNPLIDQYLYYLSKTINGSGQNQQTLKFSVAGPSNMAVQGRNYIPGPSYRQQRVSTTVTQNNNSRFAWPGASSWALNGRNSLMNPGPAMASHKEGEDRFFPLSGSLIFGKQGTGRDNVDADKVMITNEEEIKTTNPVATESYGQVATNHQSAQAQAQTGWVQNQGILPGMVWQDRDVYLQGPIWAKIPHTDGNFHPSPLMGGFGMKHPPPQILIKNTPVPADPPTAFNKDKLNSFITQYSTGQVSVEIEWELQKENSKRWNPEIQYTSNYYKSNNVEFAVNTEGVYSEPRPIGTRYLTRNL
notes: VP3-only VLP; also called AN.QK.ER
Kd [3]: 20 nM
koff [3]: 0.000667 s⁻¹
kon [3]: 33300 M⁻¹ s⁻¹
Kd [4]: 80 nM
koff [4]: 0.000962 s⁻¹
kon [4]: 11800 M⁻¹ s⁻¹
KD Fold Change [5]: 117 fold
Kd [6]: 20 nM
koff [6]: 0.000667 s⁻¹
kon [6]: 33300 M⁻¹ s⁻¹
Fold change vs WT [7]: 53 fold
Fold change vs WT [8]: 117 fold

— patent publication US20250388628A1 (Genentech, published 2025)
